Test results as given in patent publication US8420051B2, “Muteins of hNGAL and related proteins with affinity for a given target” (Technische Universitaet Meunchen, priority 2008, dated 2013).
Like-named read-outs stand apart in the source and are kept apart here.

Legend:
[1] = target: human neutrophil gelatinase-associated lipocalin (hNGAL, Lcn2, P80188), wild type (Homo sapiens, UniProt P80188); settings: cited from earlier work
[2] = target: T1, hNGAL mutein C26, SEQ ID NO: 10 (Yd5 + L42P/P48L/Q49L/I55T/K75M) (Homo sapiens, UniProt P80188, C107S/D97E/I100T/I61A/I75T/K154S/K95M/L56R/L62P/L90R/P68L/Q48H/Q69L/R101M/S147Q/S88A/T156S/T165A/T74Q/V53Q/W99L/Y158L/Y72T); assay type: binding; settings: read-out: Kg (from half-maximal free metal chelate concentration)
T1 construct: the mature hNGAL protein and the C-terminal Strep-tag II; OmpA signal peptide (N, cleaved yes); made in house; host or cells: E. coli BL21 or TG1-F- (periplasm), plasmid pNGAL15
T1 sequence (P80188 21-198 with the stated changes): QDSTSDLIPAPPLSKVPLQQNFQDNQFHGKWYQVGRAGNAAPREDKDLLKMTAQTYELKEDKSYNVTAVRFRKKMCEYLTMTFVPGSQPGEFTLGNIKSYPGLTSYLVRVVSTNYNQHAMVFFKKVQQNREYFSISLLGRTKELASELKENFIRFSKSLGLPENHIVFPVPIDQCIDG

[3] = target: T2, hNGAL mutein Tb7.N9.N34, SEQ ID NO: 7 (Tb7.N9 + S127Q) (Homo sapiens, UniProt P80188, C107S/I100T/I61A/K154S/L56R/L90R/Q48H/R101M/S147Q/S88A/T165A/T74Q/V53Q/W99L/Y158L/Y72T); experiment: SPR (Biacore), immobilized Me•DTPA-RNase; assay type: binding
T2 construct: the mature hNGAL protein and the C-terminal Strep-tag II; Strep-tag II (C); OmpA signal peptide (N, cleaved yes); made in house; host or cells: E. coli BL21 or TG1-F- (periplasm), plasmid pNGAL15
T2 sequence (P80188 21-198 with the stated changes): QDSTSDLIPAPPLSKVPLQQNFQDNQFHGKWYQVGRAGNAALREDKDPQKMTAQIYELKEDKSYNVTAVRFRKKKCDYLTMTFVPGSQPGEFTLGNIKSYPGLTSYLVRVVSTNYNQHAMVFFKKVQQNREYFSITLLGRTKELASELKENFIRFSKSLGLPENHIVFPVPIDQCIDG
Description: (§1) Real time analysis of hNGAL variants was performed on a BIAcore X system (BIAcore, Uppsala, Sweden) using PBS/t (PBS containing 0.005% (v/v) Tween 20) as running buffer. 5 to 27 μg/ml solutions of the Me•DTPA-RNase conjugate in 10 mM Na-acetate, pH 5.0 were immobilized on a CM5 chip using standard amine coupling chemistry, resulting in a ligand density of 240 to 1800 resonance units (RU). The purified hNGAL variant was applied at a flow rate of 5 or 25 μl/min at concentrations of 0.5 up to 500 nM. The sensorgrams were corrected by subtraction of the corresponding signals measured for the control channel, which had been activated and blocked with ethanolamine. Kinetic data evaluation was performed by global fitting with BIAevaluation software V 3.0 (Karlsson et al. (1991) J. Immunol. Methods 145, 229-240). Alternatively, the plateau values at the end of the association phase (after 200 s) were plotted against the applied protein concentration and fitted as in the ELISA (see above) to determine the equilibrium dissociation constants (KO.
(§2) Finally, the hNGAL variants were analyzed by SPR using a Biacore CM-5 chip with the covalently attached Y-DTPA-RNaseA conjugate and applying the purified recombinant proteins (Table 3). […] The improved KD values result primarily from slower ligand dissociation.

[4] = target: T3, hNGAL mutein Tb7, SEQ ID NO: 2 (Gln28His, Val33Gln, Leu36Arg, Ile41Ala, Tyr52Thr, Thr54Gln, Ser68Ala, Leu70Arg, Trp79Ala, Arg81Met, Cys87Ser, Lys134Ser, Tyr138L (Homo sapiens, UniProt P80188, C107S/I61A/K154S/L56R/L90R/Q48H/R101M/S88A/T165A/T74Q/V53Q/W99A/Y158L/Y72T)); experiment: SPR (Biacore), immobilized Me•DTPA-RNase; assay type: binding
T3 construct: the mature hNGAL protein and the C-terminal Strep-tag II; OmpA signal peptide (N, cleaved yes); made in house; host or cells: E. coli BL21 or TG1-F- (periplasm), plasmid pNGAL15
T3 sequence (P80188 21-198 Q48H/V53Q/L56R/I61A/Y72T/T74Q/S88A/L90R/W99A/R101M/C107S/K154S/Y158L/T165A): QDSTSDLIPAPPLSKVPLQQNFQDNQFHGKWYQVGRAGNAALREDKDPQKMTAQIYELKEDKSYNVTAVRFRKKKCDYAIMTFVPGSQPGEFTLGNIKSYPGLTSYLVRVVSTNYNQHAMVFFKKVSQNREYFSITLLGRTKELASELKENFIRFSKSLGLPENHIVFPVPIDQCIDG
Description: as §1, §2

[5] = target: T4, hNGAL mutein Ya6, SEQ ID NO: 8 (Tb7.N9.N34 with Thr136Ser) (Homo sapiens, UniProt P80188, C107S/I100T/I61A/K154S/L56R/L90R/Q48H/R101M/S147Q/S88A/T156S/T165A/T74Q/V53Q/W99L/Y158L/Y72T); experiment: SPR (Biacore), immobilized Me•DTPA-RNase; assay type: binding
T4 construct: the mature hNGAL protein and the C-terminal Strep-tag II; Strep-tag II (C); OmpA signal peptide (N, cleaved yes); made in house; host or cells: E. coli BL21 or TG1-F- (periplasm), plasmid pNGAL15
T4 sequence (P80188 21-198 with the stated changes): as the sequence (P80188 21-198 Q48H/V53Q/L56R/I61A/Y72T/T74Q/S88A/L90R/W99A/R101M/C107S/K154S/Y158L/T165A) above, with A79L, I80T, S127Q, T136S counted along it
Description: as §1, §2

[6] = target: T5, hNGAL mutein Tb7.N9, SEQ ID NO: 6 (Tb7 + A79L/I80T) (Homo sapiens, UniProt P80188, C107S/I100T/I61A/K154S/L56R/L90R/Q48H/R101M/S88A/T165A/T74Q/V53Q/W99L/Y158L/Y72T); experiment: SPR (Biacore), immobilized Me•DTPA-RNase; assay type: binding
T5 construct: the mature hNGAL protein and the C-terminal Strep-tag II; OmpA signal peptide (N, cleaved yes); made in house; host or cells: E. coli BL21 or TG1-F- (periplasm), plasmid pNGAL15
T5 sequence (P80188 21-198 Q48H/V53Q/L56R/I61A/Y72T/T74Q/S88A/L90R/W99L/I100T/R101M/C107S/K154S/Y158L/T165A): as the sequence (P80188 21-198 Q48H/V53Q/L56R/I61A/Y72T/T74Q/S88A/L90R/W99A/R101M/C107S/K154S/Y158L/T165A) above, with A79L, I80T counted along it
Description: as §1, §2

[7] = target: T6, hNGAL mutein Yd5, SEQ ID NO: 9 (Tb7.N9.N34 + D77E/T136S) (Homo sapiens, UniProt P80188, C107S/D97E/I100T/I61A/K154S/L56R/L90R/Q48H/R101M/S147Q/S88A/T156S/T165A/T74Q/V53Q/W99L/Y158L/Y72T); experiment: SPR (Biacore), immobilized Me•DTPA-RNase; assay type: binding
T6 construct: the mature hNGAL protein and the C-terminal Strep-tag II; OmpA signal peptide (N, cleaved yes); made in house; host or cells: E. coli BL21 or TG1-F- (periplasm), plasmid pNGAL15
T6 sequence (P80188 21-198 with the stated changes): as the sequence (P80188 21-198 Q48H/V53Q/L56R/I61A/Y72T/T74Q/S88A/L90R/W99A/R101M/C107S/K154S/Y158L/T165A) above, with D77E, A79L, I80T, S127Q, T136S counted along it
Description: as §1, §2

[8] = target: T7, human neutrophil gelatinase-associated lipocalin (hNGAL), wild type, SEQ ID NO: 1 (Homo sapiens, UniProt P80188); experiment: ELISA, captured hNGAL variant with Me•DTPA conjugate; assay type: binding
T7 construct: the mature hNGAL protein and the C-terminal Strep-tag II; OmpA signal peptide (N, cleaved yes); made in house; host or cells: E. coli BL21 or TG1-F- (periplasm), plasmid pNGAL14
T7 sequence (P80188 21-198): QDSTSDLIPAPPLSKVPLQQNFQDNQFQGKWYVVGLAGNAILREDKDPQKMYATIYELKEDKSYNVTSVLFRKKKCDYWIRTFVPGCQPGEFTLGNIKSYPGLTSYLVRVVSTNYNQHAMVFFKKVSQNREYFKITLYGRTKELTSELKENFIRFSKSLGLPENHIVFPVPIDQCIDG

[9] = target: T8, hNGAL mutein Tb7, SEQ ID NO: 2 (Homo sapiens, UniProt P80188, C107S/I61A/K154S/L56R/L90R/Q48H/R101M/S88A/T165A/T74Q/V53Q/W99A/Y158L/Y72T); experiment: as above; assay type: binding; settings: Tb•DTPA-RNase A conjugate, read-out: apparent affinity
T8 construct: the mature hNGAL protein and the C-terminal Strep-tag II; OmpA signal peptide (N, cleaved yes); made in house; host or cells: E. coli BL21 or TG1-F- (periplasm), plasmid pNGAL15
T8 sequence (P80188 21-198 Q48H/V53Q/L56R/I61A/Y72T/T74Q/S88A/L90R/W99A/R101M/C107S/K154S/Y158L/T165A): as the sequence (P80188 21-198 Q48H/V53Q/L56R/I61A/Y72T/T74Q/S88A/L90R/W99A/R101M/C107S/K154S/Y158L/T165A) above

[10] = 5 μl/min, from the kinetic analysis, read-out: KD
[11] = equilibrium analysis, read-out: Kd/eq

Chain of human neutrophil gelatinase-associated lipocalin (hNGAL, Lcn2, P80188), wild type (P80188 21-198, one chain of several): as the sequence (P80188 21-198) above

O=C(N[C@H]1COC(=O)[C@@H](NC(=O)c2cccc(O)c2O)COC(=O)[C@@H](NC(=O)c2cccc(O)c2O)COC1=O)c1cccc(O)c1O.[Fe+3] [Fe^3+-enterobactin, enterobactin]
Kd ([1]; read-out: dissociation constant (KD)): 0.4 nM

Nc1ccc(C[C@H](CN(CC(=O)O)[C@H]2CCCC[C@@H]2N(CC(=O)O)CC(=O)O)N(CC(=O)O)CC(=O)O)cc1.[Gd+3] [Me•p-NH2-Bn-CHX-A″-DTPA (Gd^3+), [(R)-2-amino-3-(4-aminophenyl)propyl]-trans-(S,S)-cyclohexane-1,2-diamine-pentaacetic acid]
Kd [2]: 3.6 ± 0.24 nM

Nc1ccc(C[C@H](CN(CC(=O)O)[C@H]2CCCC[C@@H]2N(CC(=O)O)CC(=O)O)N(CC(=O)O)CC(=O)O)cc1.[In+3] [Me•p-NH2-Bn-CHX-A″-DTPA (In^3+), [(R)-2-amino-3-(4-aminophenyl)propyl]-trans-(S,S)-cyclohexane-1,2-diamine-pentaacetic acid]
Kd [2]: 44.7 ± 2.5 nM

Nc1ccc(C[C@H](CN(CC(=O)O)[C@H]2CCCC[C@@H]2N(CC(=O)O)CC(=O)O)N(CC(=O)O)CC(=O)O)cc1.[Tb+3] [Me•p-NH2-Bn-CHX-A″-DTPA (Tb^3+), [(R)-2-amino-3-(4-aminophenyl)propyl]-trans-(S,S)-cyclohexane-1,2-diamine-pentaacetic acid]
Kd [2]: 2.9 ± 0.17 nM

C[C@H]1OC(=O)[C@@H](NC(=O)CNC(=O)c2cccc(O)c2O)[C@@H](C)OC(=O)[C@@H](NC(=O)CNC(=O)c2cccc(O)c2O)[C@@H](C)OC(=O)[C@H]1NC(=O)CNC(=O)c1cccc(O)c1O [bacillibactin]
binding [1]: forms stable complexes

O=C(CC(O)(CC(=O)NCCCCNCCCNC(=O)c1ccc(O)c(O)c1)C(=O)O)NCCCCNCCCNC(=O)c1ccc(O)c(O)c1 [petrobactin]
binding [1]: does not bind

B1: Tb^3+•DTPA-RNase: p-SCN-Bn-CHX-A″-DTPA covalently coupled to bovine ribonuclease A (about 1:1), charged with Tb^3+ (conjugate, UniProt P61823 27-150, looked up)
Ribonuclease pancreatic: KETAAAKFERQHMDSSTSAASSSNYCNQMMKSRNLTKDRCKPVNTFVHESLADVQAVCSQKNVACKNGQTNCYQSYSTMSITDCRETGSSKYPNCAYKTTQANKHIIVACEGNPYVPVHFDASV
modifications: CHX-A''-DTPA chelate with Tb3+
koff ([3]; 5 μl/min): 0.0114 s⁻¹
kon ([3]; 5 μl/min): 746000 M⁻¹ s⁻¹
Kd [3, 10]: 15.3 nM
Kd [3, 11]: 21 ± 2.3 nM
koff ([4]; 5 μl/min): 0.0401 s⁻¹
kon ([4]; 5 μl/min): 535000 M⁻¹ s⁻¹
Kd [4, 10]: 74.9 nM
Kd ([4]; from concentration-dependent saturation values in an equilibrium analysis, read-out: Kd/eq): 50 ± 6.5 nM
koff ([5]; 5 μl/min): 0.00296 s⁻¹
Kd [5, 10]: 2.39 nM
Kd [5, 11]: 5 ± 0.22 nM
koff ([6]; 5 μl/min): 0.0105 s⁻¹
kon ([6]; 5 μl/min): 689000 M⁻¹ s⁻¹
Kd [6, 10]: 15.2 nM
Kd [6, 11]: 25 ± 2.7 nM
koff ([7]; 5 μl/min): 0.00246 s⁻¹
kon ([7]; 5 μl/min): 1e+06 M⁻¹ s⁻¹
Kd [7, 10]: 2.34 nM
Kd [7, 11]: 3.8 ± 0.15 nM
binding activity [8]: no measurable binding activity
Kd [9]: 74.5 ± 7.8 nM
